# Patent US20100093623A1, “COMPOSITIONS AND METHODS FOR […]-LIKE RECEPTOR ACTIVITY AND USES THEREOF” (Burnham Institute for Medical Research, priority 2008, published 2010)
# T1: (His)6-NLRP1 (NLR family, pyrin domain-containing 1), purified recombinant full-length protein from Sf21 cells (human), Q9C000
# T1 chain: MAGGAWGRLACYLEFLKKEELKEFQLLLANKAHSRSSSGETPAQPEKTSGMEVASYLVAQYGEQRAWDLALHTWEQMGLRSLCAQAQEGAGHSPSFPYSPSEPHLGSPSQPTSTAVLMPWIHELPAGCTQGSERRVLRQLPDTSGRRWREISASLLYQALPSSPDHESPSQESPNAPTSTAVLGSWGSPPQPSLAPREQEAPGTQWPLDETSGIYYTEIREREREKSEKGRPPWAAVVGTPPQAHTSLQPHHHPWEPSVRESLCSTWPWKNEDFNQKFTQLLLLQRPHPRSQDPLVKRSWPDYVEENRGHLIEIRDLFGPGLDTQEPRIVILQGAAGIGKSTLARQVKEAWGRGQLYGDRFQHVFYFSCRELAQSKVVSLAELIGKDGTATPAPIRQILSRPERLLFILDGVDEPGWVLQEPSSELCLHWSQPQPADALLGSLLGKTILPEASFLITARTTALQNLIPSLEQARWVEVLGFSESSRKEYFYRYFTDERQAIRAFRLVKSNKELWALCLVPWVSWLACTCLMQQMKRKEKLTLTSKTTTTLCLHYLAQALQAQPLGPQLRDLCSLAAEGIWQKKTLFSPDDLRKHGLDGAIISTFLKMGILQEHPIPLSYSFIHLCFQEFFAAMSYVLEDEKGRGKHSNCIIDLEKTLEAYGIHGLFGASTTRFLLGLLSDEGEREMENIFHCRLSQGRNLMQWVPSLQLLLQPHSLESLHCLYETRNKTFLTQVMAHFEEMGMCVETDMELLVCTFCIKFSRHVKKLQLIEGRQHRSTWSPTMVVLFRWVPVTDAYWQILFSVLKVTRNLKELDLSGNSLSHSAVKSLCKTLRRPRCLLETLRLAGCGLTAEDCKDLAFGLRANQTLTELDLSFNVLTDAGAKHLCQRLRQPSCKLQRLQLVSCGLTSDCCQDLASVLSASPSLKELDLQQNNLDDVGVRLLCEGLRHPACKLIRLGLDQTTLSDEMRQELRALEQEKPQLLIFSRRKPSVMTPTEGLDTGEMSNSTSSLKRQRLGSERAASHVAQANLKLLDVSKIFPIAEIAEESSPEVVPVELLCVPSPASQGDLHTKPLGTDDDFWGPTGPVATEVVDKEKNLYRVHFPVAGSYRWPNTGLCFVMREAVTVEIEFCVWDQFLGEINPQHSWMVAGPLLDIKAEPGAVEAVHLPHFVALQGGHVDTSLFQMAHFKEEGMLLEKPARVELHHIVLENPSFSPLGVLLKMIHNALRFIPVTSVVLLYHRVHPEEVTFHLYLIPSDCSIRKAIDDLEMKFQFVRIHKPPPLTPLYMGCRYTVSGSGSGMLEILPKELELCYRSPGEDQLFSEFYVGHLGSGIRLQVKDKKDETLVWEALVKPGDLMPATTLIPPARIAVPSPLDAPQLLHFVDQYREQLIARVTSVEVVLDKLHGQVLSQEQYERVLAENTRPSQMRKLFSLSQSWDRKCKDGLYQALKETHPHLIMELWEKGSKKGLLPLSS
# Biological target: T1, (His)6-NLRP1 (NLR family, pyrin …)
# Experiment: cell-based or functional assay
binder,measurement,value
PLQTPAAPGAAAGPALSPVP (modifications not checked) [Bcl-2 Loop peptide 71-90 (synthetic 20'mer)],IC50 (concentration to inhibit NLRP1-induced Caspase-1 activity by 50%),9.92 nM
